# According to IntAct's records for PubMed 9024666:
# B1: Apoptosis regulator ced-9 (Caenorhabditis elegans), P41958 (parent)
# chain: MTRCTADNSLTNPAYRRRTMATGEMKEFLGIKGTEPTDFGINSDAQDLPSPSRQASTRRMSIGESIDGKINDWEEPRLDIEGFVVDYFTHRIRQNGMEWFGAPGLPCGVQPEHEMMRVMGTIFEKKHAENFETFCEQLLAVPRISFSLYQDVVRTVGNAQTDQCPMSYGRLIGLISFGGFVAAKMMESVELQGQVRNLFVYTSLFIKTRIRNNWKEHNRSWDDFMTLGKQMKEDYERAEAEKVGRRKQNRRWSMIGAGVTAGAIGIVGVVVCGRMMFSLK
# partner: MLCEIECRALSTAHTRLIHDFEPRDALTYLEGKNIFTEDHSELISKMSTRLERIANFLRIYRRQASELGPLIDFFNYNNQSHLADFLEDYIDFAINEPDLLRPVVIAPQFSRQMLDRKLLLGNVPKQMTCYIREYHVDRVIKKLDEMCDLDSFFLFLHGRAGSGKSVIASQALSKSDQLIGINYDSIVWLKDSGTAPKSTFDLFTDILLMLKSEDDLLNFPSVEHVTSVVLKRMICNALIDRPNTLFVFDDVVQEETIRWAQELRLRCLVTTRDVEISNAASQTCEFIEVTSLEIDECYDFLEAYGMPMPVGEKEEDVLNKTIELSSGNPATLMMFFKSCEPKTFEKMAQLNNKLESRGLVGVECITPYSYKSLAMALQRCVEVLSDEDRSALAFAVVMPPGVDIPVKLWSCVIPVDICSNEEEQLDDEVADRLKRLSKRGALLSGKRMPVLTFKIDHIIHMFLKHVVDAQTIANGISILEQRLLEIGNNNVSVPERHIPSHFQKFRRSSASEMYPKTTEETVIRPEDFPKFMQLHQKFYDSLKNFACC
# Variants of: B1
# Conditions: with ced4_caeel ced-4, P30429
row,Variant,effect of a mutation on the interaction
1,Y149N,decreasing interaction
